This note sets out measurements from article PMC2770678 (Nucleic Acids Research, 2009).

The target of this experiment is T1, P. furiosus AP endonuclease (PfuAPE), PF0258 gene product, His-tagged recombinant (Pyrococcus furiosus, UniProt Q8U437 1-281).
T1 sequence (looked up): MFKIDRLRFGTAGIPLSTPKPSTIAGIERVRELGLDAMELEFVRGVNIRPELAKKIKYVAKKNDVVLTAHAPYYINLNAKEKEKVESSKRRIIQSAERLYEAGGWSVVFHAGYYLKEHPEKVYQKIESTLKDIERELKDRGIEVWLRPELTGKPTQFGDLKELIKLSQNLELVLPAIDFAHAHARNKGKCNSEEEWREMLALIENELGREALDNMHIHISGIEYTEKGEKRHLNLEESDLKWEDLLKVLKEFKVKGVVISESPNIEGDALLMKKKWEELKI
Kind of experiment: SPR.

B1: P. furiosus proliferating cell nuclear antigen (PfuPCNA), recombinant wild type (natural protein, Pyrococcus furiosus, UniProt O73947 1-249, looked up)
chain: MPFEIVFEGAKEFAQLIDTASKLIDEAAFKVTEDGISMRAMDPSRVVLIDLNLPSSIFSKYEVVEPETIGVNMDHLKKILKRGKAKDTLILKKGEENFLEITIQGTATRTFRVPLIDVEEMEVDLPELPFTAKVVVLGEVLKDAVKDASLVSDSIKFIARENEFIMKAEGETQEVEIKLTLEDEGLLDIEVQEETKSAYGVSYLSDMVKGLGKADEVTIKFGNEMPMQMEYYIRDEGRLTFLLAPRVEE
For the molecule B1, the Kd came out at 1000 nM.
